The text below walks through data of PMC4323627 (Journal of molecular biology, 2014).

Series [1] deals with the molecule itself. In words: crystal structure.
Series [2] has as its target T1, human Shq1 CS domain without 6XHis-tag (hCS) (human, UniProt Q6PI26 1-96, uniformly 15N-labelled).
T1 sequence (looked up): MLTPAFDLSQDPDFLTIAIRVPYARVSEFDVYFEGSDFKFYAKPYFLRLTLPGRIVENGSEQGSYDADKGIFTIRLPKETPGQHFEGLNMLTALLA
The experiment in a line: NMR titration.

B1: human Shq1 CS domain P22S with N-terminal 6XHis-tag (his-hCS(P22S)) (domain or fragment)
chain: MAHHHHHHVDDDDKMLTPAFDLSQDPDFLTIAIRVSYARVSEFDVYFEGSDFKFYAKPYFLRLTLPGRIVENGSEQGSYDADKGIFTIRLPKETPGQHFEGLNMLTALLA
Turning to B1, in series [1], the binding result was “binds”.

With LNVRTTHYTPLA [Dys2S peptide (dyskerin residues 62-73)], the Kd in series [2] was over 500 µM.

One may read the Kd as the equilibrium constant for the complex coming apart.
